Results from publication PMC4908412, “β-arrestin-1 contributes to brown fat function and directly interacts with PPARα and PPARγ” (Scientific Reports, 2016).
Substitutions are numbered along the chain they refer to. Numbers in names are those of the source.

B1: PPARα-LBD D371A (domain or fragment, human, UniProt Q07869 196-468, looked up)
chain: EDSETADLKSLAKRIYEAYLKNFNMNKVKARVILSGKASNNPPFVIHDMETLCMAEKTLVAKLVANGIQNKEAEVRIFHCCQCTSVETVTELTEFAKAIPGFANLDLNDQVTLLKYGVYEAIFAMLSSVMNKDGMLVAYGNGFITREFLKSLRKPFCDIMEPKFDFAMKFNALELADSDISLFVAAIICCGDRPGLLNVGHIEKMQEGIVHVLRLHLQSNHPDDIFLFPKLLQKMADLRQLVTEHAQLVQIIKKTESDAALHPLLQEIYRDMY
notes: also called PPARα M2; source: E. coli BL21 (DE3)-CodonPlus, purified
B2: PPARα-ligand binding domain (amino acids 196–468) (domain or fragment, human, UniProt Q07869 196-468, looked up)
chain: B1 chain with A176D
modifications: biotinylated for biolayer interferometry; 15N-labeled for NMR
notes: The His tag is used for capture in the pulldown; also called PPARα-LBD; wild-type PPARα; source: E. coli BL21 (DE3)-CodonPlus, purified; not shown: His6, N-terminal, kept
B3: PPARγ-LBD L311G/N312G (domain or fragment, human, UniProt P37231-2 204-477, looked up)
chain: LNPESADLRALAKHLYDSYIKSFPLTKAKARAILTGKTTDKSPFVIYDMNSLMMGEDKIKFKHITPLQEQSKEVAIRIFQGCQFRSVEAVQEITEYAKSIPGFVNLDGGDQVTLLKYGVHEIIYTMLASLMNKDGVLISEGQGFMTREFLKSLRKPFGDFMEPKFEFAVKFNALELDDSDLAIFIAVIILSGDRPGLLNVKPIEDIQDNLLQALELQLKLNHPESSQLFAKLLQKMTDLRQIVTEHVQLLQVIKKTETDMSLHPLLQEIYKDLY
notes: also called PPARγ M1; source: E. coli BL21 (DE3)-CodonPlus, purified
B4: PPARγ-ligand binding domain (amino acids 204–477) (domain or fragment, human, UniProt P37231-2 204-477, looked up)
chain: B3 chain with G108L, G109N
modifications: biotinylated for biolayer interferometry; 15N-labeled for NMR
notes: The His tag is used for capture in the pulldown; also called PPARγ-LBD; wild-type PPARγ; source: E. coli BL21 (DE3)-CodonPlus, purified; not shown: His6, N-terminal, kept
B5: PPARγ-LBD D380A (domain or fragment, human, UniProt P37231-2 204-477, looked up)
chain: B3 chain with G108L, G109N, D177A
notes: also called PPARγ M2; source: E. coli BL21 (DE3)-CodonPlus, purified
B6: 9-cis-retinoic acid receptor α-ligand binding domain (amino acids 196–435) (domain or fragment, human, UniProt P19793 223-462, looked up)
chain: TSSANEDMPVERILEAELAVEPKTETYVEANMGLNPSSPNDPVTNICQAADKQLFTLVEWAKRIPHFSELPLDDQVILLRAGWNELLIASFSHRSIAVKDGILLATGLHVHRNSAHSAGVGAIFDRVLTELVSKMRDMQMDKTELGCLRAIVLFNPDSKGLSNPAEVEALREKVYASLEAYCKHKYPEQPGRFAKLLLRLPALRSIGLKCLEHLFFFKLIGDTPIDTFLMEMLEAPHQMT
notes: also called RXRα-LBD; source: E. coli BL21 (DE3)-CodonPlus, purified

Columns and labels:
Settings in all cases: both partners purified
[1] = target: T1, β-arrestin-1 (recombinant rattus β-arrestin-1) (rat, UniProt P29066 1-418); assay: BLI; Octet Red 96; 50 μg/ml biotinylated PPARα-LBD or PPARγ-LBD (or their mutants) immobilised on streptavidin biosensors; analyte β-arrestin-1, βarr1M or peptides in solution (single 2 μM or serial dilutions, β-arrestin-1 0.5–32 μM); 25 °C; 2:1 heterogeneous ligand model and steady-state analysis
T1 construct: β-arrestin-1, rat (rattus), recombinant; also called βarr1; wild-type β-arrestin-1
T1 sequence (P29066 whole entry, the tested form may be a part): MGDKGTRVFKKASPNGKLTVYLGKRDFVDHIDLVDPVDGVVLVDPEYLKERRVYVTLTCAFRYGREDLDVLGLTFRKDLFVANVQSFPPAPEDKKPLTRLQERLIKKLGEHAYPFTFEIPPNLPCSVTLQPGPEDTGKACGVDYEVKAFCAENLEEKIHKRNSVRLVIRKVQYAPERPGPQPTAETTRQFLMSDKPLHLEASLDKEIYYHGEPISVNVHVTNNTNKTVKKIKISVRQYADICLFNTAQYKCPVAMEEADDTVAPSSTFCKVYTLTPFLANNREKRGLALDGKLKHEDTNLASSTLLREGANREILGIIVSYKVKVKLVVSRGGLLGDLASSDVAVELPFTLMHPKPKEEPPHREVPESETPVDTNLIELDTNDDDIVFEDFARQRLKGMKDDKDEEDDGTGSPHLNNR

[2] = target: T2, β-arrestin-1 double mutant with L100A and L104A (rat, UniProt P29066 1-418, L100A | L104A); assay: as above
T2 construct: β-arrestin-1 with L100A and L104A; also called βarr1M; source: purified
T2 sequence (P29066 whole entry L100A/L104A): as the sequence (P29066 whole entry, the tested form may be a part) above, with L100A, L104A counted along it

[3] = target: T1, β-arrestin-1 (recombinant rattus …); assay: as above; remark: listed apart in the source
[4] = target: B2; assay: as above
[5] = target: B4; assay: as above
[6] = target: B4; assay: as above; remark: listed apart in the source
[7] = target: B2; assay: as above; remark: listed apart in the source
[8] = target: B4; assay: BLI; RXRα-LBD with PPARα/γ-LBD; the tables and the methods name PPAR-LBD as ligand and RXRα-LBD as analyte, the legend of Fig. 2e,f says 50 μg/ml RXRα-LBD loaded on SAs with serial dilutions of PPARα/γ-LBD; 25 °C; 2:1 heterogeneous ligand model and steady-state analysis
[9] = target: B2; assay: as above
[10] = target: B4; assay: BLI; competition: PPARα/γ-LBD and β-arrestin-1 with or without increasing amounts of RXRα-LBD (Supplementary Fig. 5b,c)
[11] = target: B2; assay: as above

For B1, the Kd [1] was 4100 nM.

In the case of B2, the Kd [2] is reported as 3900 nM and the Kd [1] is reported as 3600 nM.

With B3 the Kd [3] was 1900 nM.

B4 was tested, and the Kd [3] was 1400 nM.

B5 showed a Kd [3] of 1500 nM.

In the case of PAPEDKKPLTRLQERLIKKLG [synthetic β-arrestin-1 peptide harboring the LQERLIKKL sequence], the “KD1 (2:1 HL model)” value [4] is reported as 42 µM, the “KD2 (2:1 HL model)” value [4] is reported as 60.3 µM and the Kd [4] is reported as 56000 nM. For the same binder, the “koff1 (2:1 HL model)” value [4] was 0.000907 S^−1, the “koff2 (2:1 HL model)” value [4] was 0.161 S^−1 and the “kon1 (2:1 HL model)” value [4] was 21.6 M^−1S^−1. For the same binder, the “kon2 (2:1 HL model)” value [4] was 2660 M^−1S^−1, the “KD1 (2:1 HL model)” value [5] was 557 µM and the “KD2 (2:1 HL model)” value [5] was 521 µM. For the same binder, the Kd [5] was 560000 nM, the “koff1 (2:1 HL model)” value [5] was 0.00323 S^−1 and the “koff2 (2:1 HL model)” value [5] was 0.132 S^−1. For the same binder, the “kon1 (2:1 HL model)” value [5] was 5.8 M^−1S^−1, the “kon2 (2:1 HL model)” value [5] was 2.53 M^−1S^−1 and the maximum response [6] was 0.22 nm. The maximum response [7] was 0.27 nm.

Binder B6 has a Kd [8] of 71 nM, a Kd [9] of 29 nM and an IC50 [10] of 850 nM. It also gave an IC50 [11] of 880 nM.
